From US20250382367A1 (published 2025)

Experiments:
[1] = target: T1, biotinylated CD150 protein (UniProt Q13291 21-237, labeled with biotin, sites not stated); experiment: BLI
T1 chain: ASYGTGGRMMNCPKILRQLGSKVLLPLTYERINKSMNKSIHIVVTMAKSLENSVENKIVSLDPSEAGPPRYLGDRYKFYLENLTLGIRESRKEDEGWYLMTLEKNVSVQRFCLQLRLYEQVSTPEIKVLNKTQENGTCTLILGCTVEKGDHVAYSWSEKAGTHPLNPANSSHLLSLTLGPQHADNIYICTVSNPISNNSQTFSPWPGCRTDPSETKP

[2] = target: CD150 protein (extracellular domain, hFc fragment cleaved off with TEV protease) (UniProt Q13291); experiment: non-competitive ELISA; CD150 coated at 10 ug/mL, nanobody Fc fusion diluted 1:4 in series, HRP anti-IgG1 Fc detection

B1: nanobody Fc fusion protein (anti-CD150 nanobody fused with human IgG1 Fc) (Fc fusion)
chain: QVQLVESGGGLVQAGGSLRLSCAASGRAFSDYAVGWFRQAPGREREFVATISWSGFSTYYADSVKGRFTISRDNAEKTVTLQMNSLKPEDTAVYYCAADRNGTSFPYIRRDEYDYWGQGTQVT
- Kd [1]: 20.1 nM
- EC50 [2]: 0.0333 µg/mL
